Data published in patent US20200131524.

Target: T1, 3XHA-LEC2 (Arabidopsis LEAFY COTYLEDON 2, CDS in PB7HA 35S vector), Q1PFR7
T1 chain: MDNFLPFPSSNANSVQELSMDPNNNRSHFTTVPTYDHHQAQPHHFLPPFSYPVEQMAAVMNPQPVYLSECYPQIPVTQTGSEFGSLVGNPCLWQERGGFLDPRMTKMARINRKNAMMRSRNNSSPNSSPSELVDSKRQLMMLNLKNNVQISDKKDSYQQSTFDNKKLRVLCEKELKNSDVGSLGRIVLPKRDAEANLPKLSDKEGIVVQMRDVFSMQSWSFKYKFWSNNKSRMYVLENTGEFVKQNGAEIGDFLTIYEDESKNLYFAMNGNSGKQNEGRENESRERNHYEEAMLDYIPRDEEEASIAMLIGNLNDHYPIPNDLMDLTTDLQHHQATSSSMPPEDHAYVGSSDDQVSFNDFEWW

B1: 3xFLAG-UPL3 (Arabidopsis UBIQUITIN PROTEIN LIGASE 3, CDS in PW1266 35S vector) (protein)
chain: METRSRKRAEATSAAPSSSSSSPPPPPSASGPTTRSKRARLSSSSSSSLAPTPPSSSTTTRSRSSRSAAAAAPMDTSTDSSGFRRGGRGNRGNNNDNSDKGKEKEHDVRIRERERERDRAREQLNMDAAAAAARSADEDDDNDSEDGNGGFMHPNMSSASSALQGLLRKLGAGLDDLLPSSGIGSASSSHLNGRMKKILSGLRAEGEEGKQVEALTQLCEMLSIGTEDSLSTFSVDSFVPVLVGLLNHESNPDIMLLAARALTHLCDVLPSSCAAVVHYGAVSCLVARLLTIEYMDLAEQSLQALKKISQEHPTACLRAGALMAVLSYLDFFSTGVQRVALSTAANMCKKLPSDASDYVMEAVPLLTNLLQYHDSKVLEYASICLTRIAEAFAPYPEKLDELCNHGLVTQAASLISTSNSGGGQASLSVSTYTGLIRLLSTCASGSPLGFRTLLLLGISSILKDILLGSGVSANASVSPALSRPADQIYEIVNLANELLPPLPEGVISLPTSTNALVKGSCQKKSSPSTSGKQEDILKISPREKLLGDQPELLQQFGLDLLPVLVQIYGSSVNGTIRHKCLSVIGKLMYFSSSEMIQSLIGDTNISSFLAGVLAWKDPQVLVPALQVAEILMEKLPETFSKVFVREGVVHAVDQLVLVGKPSHASPTDKDNDCVPGSARSRRYRRRSSNANSDGNQSEEPKNPASLTIGANHNSLDTPTASFMLRETVSSCAKAFKDKYFPSDGGDVDVGVTDDLLHLKNLCTKLTAGIDDHKVKGKGKSKASGPFLGDFSASKEEYLIGVISEILGEISKGDGVSTFEFIGSGVVAALLNYFSCGYFSKEKISELNLPKLRQEGLRRFKAFLEVALPFDGNEGKVPPMTVLIQKLQNALSSLERFPVVLSHPSRSLSGSARLSSGLSALAHPLKLRLCRASGEKTLRDYSSNIVLIDPLASLAAVEEFLWPRVQRSESALKPAAPIGNTEPGTLPSGAGVSSPSSSTPASTTRRHSSRSRSAINIGDTSKKDPVHEKGTSSSKGKGKGVMKPAQADKGPQTRSNAQKRAVLDKDTQMKPASGDSSSEDEELEISPVDIDDALVIEEDDISDDEDDDNEDVLDDSLPMCTPDKVHDVKLADSVDDDGLATSGRQMNPASGGTSGAAAARASDSIDTGIGNSYGSRGALSFAAAAMAGLGAASGRGIRGSRDLHGRTLNRSSDEPSKLIFTAAGKQLSRHLTIYQAVQRQLMLDEDDDDRFGGSDLVSSDGSRFNDIYTIMYQRPDSQVNRLSVGGASSTTPSKSTKSATTNSSVESQSHRASLLDSILQGELPCDLEKSNSTYNVLALLRVLEGLNQLCPRLRAQTLSDRFAEGKITSLDDLSTTAAKVPLDEFVNSKLTPKLARQIQDALALCSGSLPSWCYQLTRACPFLFPFQTRRQYFYSTAFGLSRALNRLQQQQGADGSGSTNEREMRIGRLQRQKVRVSRNRILDSAAKVMEMYSSQKAVLEVEYFGEVGTGLGPTLEFYTLLSHDLQKASLGMWRSSSGDKVSMQIGRDEIEDGKPSAANRDIVLAPLGLFPRPWPSTADISEGGQFHKVIEYFRLLGRVMAKALQDGRLLDVPLSTAFYKLILGQELDLHDIVLFDAELGKTLQELRVVVARKHYLEGVGGDNSSTISDLCLRGCRIEDLSLEFTLPGYPEYILRSGDEIVDITNLEEYISLVVDATVKRGVTRQIEAFRSGFNQVFDITSLQIFTPSELDYLLCGRRELWEVETLAEHIKFDHGYNAKSPAIINLLEIMGELTADQQRAFCQFVTGAPRLPPGGLAVLNPKLTIVRKHSSTSSAAANGAGASETADDDLPSVMTCANYLKLPPYSTKEIMYKKLLYAINEGQGSFDLS
- ubiquitylation of LEC2 (HA immunoprecipitation and immunoblot after co-expression in Nicotiana benthamiana): when co-expressed with 3xFLAG-UPL3, 3XHA-LEC2 ubiquitylation appears enhanced
